In patent publication US20140072613A1, “Compositions and Methods for Treating Cutaneous Scarring” (priority 2012, published 2014):

How the values were obtained:
Assay in all cases: biochemical
Assay type in all cases: biochemical
266 human kinases [1] = biological target: 266 human kinases (Homo sapiens, UniProt O60674); settings: JAK2(h); 100 μM
Procedure, shortened: (§1)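 Radiometric filter-binding format: a positively charged substrate takes up radiolabelled phosphate from ATP unless the kinase is inhibited, then is captured on a negatively charged filter membrane. Counts from scintillation are expressed relative to a 100% activity control.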

266 human kinases [2] = biological target: 266 human kinases (Homo sapiens, UniProt P07333); settings: Fms(h); 100 μM
Procedure, shortened: as §1

266 human kinases [3] = biological target: 266 human kinases (Homo sapiens, UniProt P07948); settings: Lyn(h); 100 μM
266 human kinases (Homo sapiens, UniProt P07948), sequence (P07948 whole entry): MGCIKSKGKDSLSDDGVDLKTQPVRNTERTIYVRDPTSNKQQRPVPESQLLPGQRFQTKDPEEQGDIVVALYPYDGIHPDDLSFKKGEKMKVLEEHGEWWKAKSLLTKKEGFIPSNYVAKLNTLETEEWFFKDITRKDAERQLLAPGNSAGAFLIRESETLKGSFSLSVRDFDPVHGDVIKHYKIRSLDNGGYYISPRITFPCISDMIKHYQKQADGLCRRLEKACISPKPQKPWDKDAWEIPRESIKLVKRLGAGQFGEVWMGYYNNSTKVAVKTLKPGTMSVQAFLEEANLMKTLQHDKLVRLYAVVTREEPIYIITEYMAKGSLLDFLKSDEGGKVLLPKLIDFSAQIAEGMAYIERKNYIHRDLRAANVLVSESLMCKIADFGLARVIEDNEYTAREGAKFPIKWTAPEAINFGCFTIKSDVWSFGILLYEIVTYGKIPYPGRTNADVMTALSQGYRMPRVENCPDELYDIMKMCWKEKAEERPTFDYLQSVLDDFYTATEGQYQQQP
Procedure, shortened: as §1

266 human kinases [4] = biological target: T1, 266 human kinases (Homo sapiens, UniProt Q06418); settings: Rse(h); 100 μM
T1 sequence (Q06418 41-890): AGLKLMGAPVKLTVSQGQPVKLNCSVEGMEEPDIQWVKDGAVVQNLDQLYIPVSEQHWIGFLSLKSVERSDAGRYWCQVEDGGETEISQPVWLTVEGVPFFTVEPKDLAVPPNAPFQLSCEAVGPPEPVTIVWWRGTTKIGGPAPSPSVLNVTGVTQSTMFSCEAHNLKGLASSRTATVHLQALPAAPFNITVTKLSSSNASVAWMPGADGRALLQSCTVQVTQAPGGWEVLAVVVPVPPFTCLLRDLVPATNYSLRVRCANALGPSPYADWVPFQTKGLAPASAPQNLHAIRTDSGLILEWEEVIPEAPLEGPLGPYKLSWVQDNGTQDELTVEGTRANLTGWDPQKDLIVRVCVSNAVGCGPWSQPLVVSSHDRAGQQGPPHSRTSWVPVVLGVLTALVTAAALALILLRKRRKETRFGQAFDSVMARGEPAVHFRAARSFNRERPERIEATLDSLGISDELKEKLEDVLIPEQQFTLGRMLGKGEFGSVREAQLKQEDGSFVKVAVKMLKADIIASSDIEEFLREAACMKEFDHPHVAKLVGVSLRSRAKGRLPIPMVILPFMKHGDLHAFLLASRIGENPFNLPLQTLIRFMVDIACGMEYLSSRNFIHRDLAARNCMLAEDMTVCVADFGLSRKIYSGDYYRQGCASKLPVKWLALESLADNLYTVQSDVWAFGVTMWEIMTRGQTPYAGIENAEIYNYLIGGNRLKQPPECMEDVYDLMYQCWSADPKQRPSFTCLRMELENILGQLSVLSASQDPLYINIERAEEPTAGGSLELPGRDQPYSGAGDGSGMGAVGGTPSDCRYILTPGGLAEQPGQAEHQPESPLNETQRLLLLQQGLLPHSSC
Procedure, shortened: as §1

266 human kinases [5] = biological target: 266 human kinases (Homo sapiens, UniProt P10721, D816V); settings: cKit(D816V)(h); 100 μM
Procedure, shortened: as §1

266 human kinases [6] = biological target: 266 human kinases (Homo sapiens, UniProt Q8TDX7); settings: NEK7(h); 100 μM
266 human kinases (Homo sapiens, UniProt Q8TDX7), sequence (Q8TDX7 whole entry): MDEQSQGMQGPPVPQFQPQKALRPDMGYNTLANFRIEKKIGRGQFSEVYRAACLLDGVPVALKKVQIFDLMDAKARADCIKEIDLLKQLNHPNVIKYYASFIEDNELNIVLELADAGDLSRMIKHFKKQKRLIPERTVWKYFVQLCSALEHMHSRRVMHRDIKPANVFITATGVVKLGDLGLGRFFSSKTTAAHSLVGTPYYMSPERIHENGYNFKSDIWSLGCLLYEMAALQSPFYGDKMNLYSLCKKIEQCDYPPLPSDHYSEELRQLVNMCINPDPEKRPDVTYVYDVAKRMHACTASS
Procedure, shortened: as §1

266 human kinases [7] = biological target: T2, 266 human kinases (Homo sapiens, UniProt P54753); settings: EphB3(h); 100 μM
T2 sequence (P54753 34-998): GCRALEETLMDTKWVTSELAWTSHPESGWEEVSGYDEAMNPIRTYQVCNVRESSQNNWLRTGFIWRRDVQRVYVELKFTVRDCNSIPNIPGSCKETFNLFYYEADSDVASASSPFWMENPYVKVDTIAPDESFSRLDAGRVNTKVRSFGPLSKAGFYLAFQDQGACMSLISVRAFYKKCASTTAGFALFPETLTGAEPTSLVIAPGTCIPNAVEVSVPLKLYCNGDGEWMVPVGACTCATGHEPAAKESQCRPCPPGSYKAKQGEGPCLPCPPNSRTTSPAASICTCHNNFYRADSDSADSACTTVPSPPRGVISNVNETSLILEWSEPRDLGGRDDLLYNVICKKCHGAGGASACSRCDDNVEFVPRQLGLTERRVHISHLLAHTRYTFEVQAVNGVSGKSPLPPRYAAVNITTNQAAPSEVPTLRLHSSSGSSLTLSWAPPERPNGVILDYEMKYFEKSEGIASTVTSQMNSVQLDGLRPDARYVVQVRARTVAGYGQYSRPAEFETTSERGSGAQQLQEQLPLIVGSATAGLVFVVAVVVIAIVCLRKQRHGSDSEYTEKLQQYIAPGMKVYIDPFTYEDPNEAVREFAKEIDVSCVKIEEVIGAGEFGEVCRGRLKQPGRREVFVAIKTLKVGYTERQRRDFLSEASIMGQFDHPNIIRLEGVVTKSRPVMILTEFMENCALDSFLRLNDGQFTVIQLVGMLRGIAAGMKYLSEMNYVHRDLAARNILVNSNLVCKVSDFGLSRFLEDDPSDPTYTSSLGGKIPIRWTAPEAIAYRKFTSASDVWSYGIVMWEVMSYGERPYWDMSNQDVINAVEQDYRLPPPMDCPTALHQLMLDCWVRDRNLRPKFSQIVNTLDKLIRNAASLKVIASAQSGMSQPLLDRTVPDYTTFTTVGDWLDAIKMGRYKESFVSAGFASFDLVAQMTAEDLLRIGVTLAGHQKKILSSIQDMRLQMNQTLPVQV
Procedure, shortened: as §1

266 human kinases [8] = biological target: 266 human kinases (Homo sapiens, UniProt P43250); settings: GRK6(h); 100 μM
266 human kinases (Homo sapiens, UniProt P43250), sequence (P43250 whole entry): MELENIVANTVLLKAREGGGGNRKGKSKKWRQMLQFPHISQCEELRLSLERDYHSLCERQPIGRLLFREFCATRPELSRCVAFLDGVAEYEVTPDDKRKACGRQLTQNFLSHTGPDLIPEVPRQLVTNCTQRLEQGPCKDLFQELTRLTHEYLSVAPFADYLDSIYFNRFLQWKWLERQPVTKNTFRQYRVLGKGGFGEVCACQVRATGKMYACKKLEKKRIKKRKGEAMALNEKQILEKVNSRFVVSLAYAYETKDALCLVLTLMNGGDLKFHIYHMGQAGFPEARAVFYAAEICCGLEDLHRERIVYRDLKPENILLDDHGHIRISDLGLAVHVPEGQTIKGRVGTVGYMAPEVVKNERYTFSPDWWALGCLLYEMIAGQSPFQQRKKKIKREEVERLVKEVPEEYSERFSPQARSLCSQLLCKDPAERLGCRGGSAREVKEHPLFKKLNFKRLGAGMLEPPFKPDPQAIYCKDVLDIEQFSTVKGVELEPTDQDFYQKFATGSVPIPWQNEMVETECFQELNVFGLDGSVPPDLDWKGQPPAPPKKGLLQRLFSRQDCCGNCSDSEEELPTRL
Procedure, shortened: as §1

266 human kinases [9] = biological target: 266 human kinases (Homo sapiens, UniProt P08581, D1228H); settings: Met(D1246H)(h); 100 μM
Procedure, shortened: as §1

266 human kinases [10] = biological target: 266 human kinases (Homo sapiens, UniProt P08922); settings: Ros(h); 100 μM
266 human kinases (Homo sapiens, UniProt P08922), sequence (P08922 28-2347): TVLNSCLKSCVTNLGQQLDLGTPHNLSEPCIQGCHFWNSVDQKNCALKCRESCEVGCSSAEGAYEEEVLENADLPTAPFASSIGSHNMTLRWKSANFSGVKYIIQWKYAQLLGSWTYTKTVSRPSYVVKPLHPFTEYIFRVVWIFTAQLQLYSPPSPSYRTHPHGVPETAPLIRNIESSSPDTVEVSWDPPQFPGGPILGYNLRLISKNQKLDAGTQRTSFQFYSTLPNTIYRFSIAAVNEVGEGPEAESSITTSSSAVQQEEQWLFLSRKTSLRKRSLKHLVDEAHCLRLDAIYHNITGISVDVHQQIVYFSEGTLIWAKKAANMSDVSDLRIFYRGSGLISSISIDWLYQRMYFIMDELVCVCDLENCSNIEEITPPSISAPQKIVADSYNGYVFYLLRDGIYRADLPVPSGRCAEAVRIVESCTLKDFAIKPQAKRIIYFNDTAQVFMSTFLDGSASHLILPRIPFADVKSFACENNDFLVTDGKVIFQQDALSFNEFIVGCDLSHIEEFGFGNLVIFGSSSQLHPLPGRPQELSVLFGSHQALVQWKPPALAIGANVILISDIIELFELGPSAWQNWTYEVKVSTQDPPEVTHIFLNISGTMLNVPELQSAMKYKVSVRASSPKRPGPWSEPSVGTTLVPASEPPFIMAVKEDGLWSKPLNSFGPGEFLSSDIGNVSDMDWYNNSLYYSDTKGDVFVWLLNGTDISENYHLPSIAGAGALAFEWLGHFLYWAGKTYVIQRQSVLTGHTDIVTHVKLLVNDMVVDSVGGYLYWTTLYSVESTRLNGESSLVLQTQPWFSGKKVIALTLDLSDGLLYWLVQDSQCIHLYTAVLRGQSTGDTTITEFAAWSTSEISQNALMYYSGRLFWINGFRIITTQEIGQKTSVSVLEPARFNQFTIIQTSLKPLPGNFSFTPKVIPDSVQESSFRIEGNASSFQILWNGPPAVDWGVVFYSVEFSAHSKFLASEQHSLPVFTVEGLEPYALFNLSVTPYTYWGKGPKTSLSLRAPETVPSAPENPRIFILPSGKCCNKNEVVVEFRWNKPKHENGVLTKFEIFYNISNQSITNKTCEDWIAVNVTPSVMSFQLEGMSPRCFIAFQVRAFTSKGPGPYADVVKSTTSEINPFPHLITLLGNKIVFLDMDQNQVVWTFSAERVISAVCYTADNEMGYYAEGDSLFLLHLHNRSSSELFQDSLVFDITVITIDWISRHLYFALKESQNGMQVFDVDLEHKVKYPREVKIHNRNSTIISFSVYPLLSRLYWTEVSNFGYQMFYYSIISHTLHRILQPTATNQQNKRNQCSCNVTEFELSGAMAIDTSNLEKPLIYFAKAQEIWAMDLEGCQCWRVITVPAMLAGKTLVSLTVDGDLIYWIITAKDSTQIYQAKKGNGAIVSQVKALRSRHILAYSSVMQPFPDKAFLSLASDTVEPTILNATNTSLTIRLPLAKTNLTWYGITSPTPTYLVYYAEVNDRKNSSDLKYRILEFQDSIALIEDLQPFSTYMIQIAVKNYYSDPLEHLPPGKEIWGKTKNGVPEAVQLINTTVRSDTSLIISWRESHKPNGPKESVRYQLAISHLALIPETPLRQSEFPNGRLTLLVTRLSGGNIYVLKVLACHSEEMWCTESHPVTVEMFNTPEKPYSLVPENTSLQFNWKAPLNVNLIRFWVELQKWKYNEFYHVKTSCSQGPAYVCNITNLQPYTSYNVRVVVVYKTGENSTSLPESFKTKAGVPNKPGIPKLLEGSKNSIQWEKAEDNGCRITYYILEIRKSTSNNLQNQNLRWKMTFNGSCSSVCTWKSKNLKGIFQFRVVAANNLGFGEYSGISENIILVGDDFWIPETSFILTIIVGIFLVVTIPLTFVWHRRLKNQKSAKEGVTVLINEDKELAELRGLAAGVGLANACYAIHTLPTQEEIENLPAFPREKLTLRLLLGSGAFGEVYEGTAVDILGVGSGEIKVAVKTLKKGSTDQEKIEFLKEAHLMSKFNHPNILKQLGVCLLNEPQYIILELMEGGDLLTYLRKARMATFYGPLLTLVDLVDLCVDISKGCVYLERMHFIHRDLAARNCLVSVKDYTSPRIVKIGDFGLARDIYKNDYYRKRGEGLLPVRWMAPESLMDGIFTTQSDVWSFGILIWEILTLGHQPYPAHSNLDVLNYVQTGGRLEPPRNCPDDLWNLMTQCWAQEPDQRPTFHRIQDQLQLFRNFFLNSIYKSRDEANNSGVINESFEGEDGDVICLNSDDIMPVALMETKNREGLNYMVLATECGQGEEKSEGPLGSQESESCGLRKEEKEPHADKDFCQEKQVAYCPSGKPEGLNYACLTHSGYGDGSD
Procedure, shortened: as §1

266 human kinases [11] = biological target: 266 human kinases (Homo sapiens, UniProt P11362); settings: FGFR1(h); 100 μM
Procedure, shortened: as §1

266 human kinases (Homo sapiens, UniProt O60674), sequence (O60674 whole entry): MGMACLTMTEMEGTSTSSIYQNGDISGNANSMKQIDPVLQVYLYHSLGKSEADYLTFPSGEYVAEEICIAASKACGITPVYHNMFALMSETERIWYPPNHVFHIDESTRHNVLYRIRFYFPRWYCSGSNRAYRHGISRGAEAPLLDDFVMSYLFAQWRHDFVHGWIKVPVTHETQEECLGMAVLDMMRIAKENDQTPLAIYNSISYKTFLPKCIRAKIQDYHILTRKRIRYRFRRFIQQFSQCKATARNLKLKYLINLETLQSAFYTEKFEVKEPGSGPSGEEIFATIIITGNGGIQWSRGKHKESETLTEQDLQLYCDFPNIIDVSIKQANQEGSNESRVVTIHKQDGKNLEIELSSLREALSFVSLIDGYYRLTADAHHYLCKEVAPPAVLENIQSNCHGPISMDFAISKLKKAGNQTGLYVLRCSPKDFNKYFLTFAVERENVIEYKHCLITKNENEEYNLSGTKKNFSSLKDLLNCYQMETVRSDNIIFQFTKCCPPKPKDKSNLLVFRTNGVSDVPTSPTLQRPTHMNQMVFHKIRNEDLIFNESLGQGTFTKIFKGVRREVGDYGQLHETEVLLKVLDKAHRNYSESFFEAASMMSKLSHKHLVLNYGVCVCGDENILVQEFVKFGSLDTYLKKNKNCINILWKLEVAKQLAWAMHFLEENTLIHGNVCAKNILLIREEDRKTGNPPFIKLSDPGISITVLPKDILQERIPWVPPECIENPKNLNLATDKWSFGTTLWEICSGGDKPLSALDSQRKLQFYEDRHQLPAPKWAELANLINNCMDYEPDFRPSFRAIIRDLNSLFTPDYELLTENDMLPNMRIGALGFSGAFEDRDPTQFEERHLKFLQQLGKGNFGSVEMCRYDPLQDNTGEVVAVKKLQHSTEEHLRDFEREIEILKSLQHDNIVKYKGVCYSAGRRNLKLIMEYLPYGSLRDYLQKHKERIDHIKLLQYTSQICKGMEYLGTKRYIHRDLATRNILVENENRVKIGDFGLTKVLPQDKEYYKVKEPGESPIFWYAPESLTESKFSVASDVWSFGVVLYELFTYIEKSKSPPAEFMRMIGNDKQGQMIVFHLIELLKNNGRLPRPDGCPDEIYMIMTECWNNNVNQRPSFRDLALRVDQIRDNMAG

In the case of “YARAAARQARAKALNRQLGVA (mammal) [MMI-0200]”, the “% activity” value (266 human kinases [1]) was 131%, the “% activity” value (266 human kinases [2]) was 92% and the “% activity” value (266 human kinases [3]) was 98%. For the same sequence, the “% activity” value (266 human kinases [4]) was 88%, the “% activity” value (266 human kinases [5]) was 118% and the “% activity” value (266 human kinases [6]) was 96%. The “% activity” value (266 human kinases [7]) was 128%, the “% activity” value (266 human kinases [8]) was 132% and the “% activity” value (266 human kinases [9]) was 139%. The “% activity” value (266 human kinases [10]) was 86% and the “% activity” value (266 human kinases [11]) was 97%.

With “HRRIKAWLKKIKALARQLGVAA (mammal) [MMI-0500]” the “% activity” value (266 human kinases [1]) was 49%, the “% activity” value (266 human kinases [2]) was 14% and the “% activity” value (266 human kinases [3]) was 31%. For the same sequence, the “% activity” value (266 human kinases [4]) was 63%, the “% activity” value (266 human kinases [5]) was 30% and the “% activity” value (266 human kinases [6]) was 89%. The “% activity” value (266 human kinases [7]) was 79%, the “% activity” value (266 human kinases [8]) was 174% and the “% activity” value (266 human kinases [9]) was 150%. The “% activity” value (266 human kinases [10]) was 150% and the “% activity” value (266 human kinases [11]) was 18%.
